On the set-up of the data set: species or system humans. To be noted: in vivo.

Protocol: The simulation was performed using the software WinNonlin Professional 5.3 (Pharsight Inc., Mountain View, Calif., USA).

Regarding “A14E, B25H, B29K(N^ε-octadecandioyl-γGlu-OEG-OEG), desB30 human insulin [Compound 6]”, the elimination half-life was 52 h and the elimination rate constant amounted to 0.013 h⁻¹.

Consider “A14E, B25H, desB27, B29K(N^ε-(octadecandioyl-γGlu), desB30 human insulin [Compound 4]”, for which the “terminal half-life compared with Compound 6” value was “almost the same terminal half-life”.
